Experiments:
[1] = molecular target: T1, A20 (Homo sapiens (Human)) (UniProt P21580)
T1 sequence: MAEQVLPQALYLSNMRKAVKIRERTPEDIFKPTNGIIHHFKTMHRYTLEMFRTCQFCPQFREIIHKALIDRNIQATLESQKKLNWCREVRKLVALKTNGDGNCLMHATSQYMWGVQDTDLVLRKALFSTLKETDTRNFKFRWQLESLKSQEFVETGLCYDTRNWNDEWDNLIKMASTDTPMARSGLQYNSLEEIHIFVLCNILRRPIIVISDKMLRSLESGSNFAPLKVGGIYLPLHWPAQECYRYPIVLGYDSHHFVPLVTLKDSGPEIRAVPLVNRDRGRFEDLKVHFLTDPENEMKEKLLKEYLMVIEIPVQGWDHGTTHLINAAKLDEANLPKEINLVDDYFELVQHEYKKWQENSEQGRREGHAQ

[2] = molecular target: Activated Protein C (Homo sapiens (Human)) (UniProt P04070)
[3] = molecular target: Caspase-8 (Homo sapiens (Human)) (UniProt Q14790)
[4] = molecular target: T2, Cathepsin F (Homo sapiens (Human)) (UniProt Q9UBX1)
T2 sequence: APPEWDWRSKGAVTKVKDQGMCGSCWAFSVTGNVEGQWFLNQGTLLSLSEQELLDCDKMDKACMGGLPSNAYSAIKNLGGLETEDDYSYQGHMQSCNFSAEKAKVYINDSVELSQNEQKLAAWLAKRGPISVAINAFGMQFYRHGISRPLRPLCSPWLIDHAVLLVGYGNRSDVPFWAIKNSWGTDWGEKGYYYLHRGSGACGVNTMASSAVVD

[5] = molecular target: Cathepsin V (Homo sapiens (Human)) (UniProt O60911)
[6] = molecular target: DPP8 (Homo sapiens (Human)) (UniProt Q6V1X1)
[7] = molecular target: T3, Deubiquitinase OTUD6B (Homo sapiens (Human)) (UniProt Q8N6M0)
T3 sequence: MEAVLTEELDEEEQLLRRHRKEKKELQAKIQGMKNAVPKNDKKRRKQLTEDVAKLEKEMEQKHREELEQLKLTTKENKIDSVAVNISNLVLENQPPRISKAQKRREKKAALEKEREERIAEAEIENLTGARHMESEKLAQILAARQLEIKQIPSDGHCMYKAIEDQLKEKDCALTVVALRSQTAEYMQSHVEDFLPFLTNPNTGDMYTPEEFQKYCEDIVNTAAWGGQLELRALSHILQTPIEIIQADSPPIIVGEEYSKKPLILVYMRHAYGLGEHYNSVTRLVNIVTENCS

[8] = molecular target: FAP (enzyme of the specificity protease screening) (Homo sapiens (Human)) (UniProt Q12884)
[9] = molecular target: Matrix metalloprotease 9 (mutant Q279R) (Homo sapiens (Human)) (UniProt P14780)
[10] = molecular target: Matrix metalloprotease1 (Homo sapiens (Human)) (UniProt P03956)
[11] = molecular target: T4, Renin (Homo sapiens (Human)) (UniProt P00797)
T4 sequence: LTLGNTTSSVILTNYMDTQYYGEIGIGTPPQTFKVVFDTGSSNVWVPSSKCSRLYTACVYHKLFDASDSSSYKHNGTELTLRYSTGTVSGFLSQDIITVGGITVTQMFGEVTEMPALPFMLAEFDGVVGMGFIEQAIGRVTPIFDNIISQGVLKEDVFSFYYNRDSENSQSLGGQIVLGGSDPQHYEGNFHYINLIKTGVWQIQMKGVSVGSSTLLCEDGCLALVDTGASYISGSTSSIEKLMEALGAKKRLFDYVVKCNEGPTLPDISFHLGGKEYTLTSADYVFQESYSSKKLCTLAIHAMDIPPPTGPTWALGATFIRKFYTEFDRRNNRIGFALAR

[12] = molecular target: Ubiquitin carboxy-terminal hydrolase L1 (Homo sapiens (Human)) (UniProt P09936)
[13] = molecular target: Ubiquitin carboxyl-terminal hydrolase 14 (Homo sapiens (Human)) (UniProt P54578)
[14] = molecular target: T5, Ubiquitin carboxyl-terminal hydrolase 2 (Homo sapiens (Human)) (UniProt O75604)
T5 sequence: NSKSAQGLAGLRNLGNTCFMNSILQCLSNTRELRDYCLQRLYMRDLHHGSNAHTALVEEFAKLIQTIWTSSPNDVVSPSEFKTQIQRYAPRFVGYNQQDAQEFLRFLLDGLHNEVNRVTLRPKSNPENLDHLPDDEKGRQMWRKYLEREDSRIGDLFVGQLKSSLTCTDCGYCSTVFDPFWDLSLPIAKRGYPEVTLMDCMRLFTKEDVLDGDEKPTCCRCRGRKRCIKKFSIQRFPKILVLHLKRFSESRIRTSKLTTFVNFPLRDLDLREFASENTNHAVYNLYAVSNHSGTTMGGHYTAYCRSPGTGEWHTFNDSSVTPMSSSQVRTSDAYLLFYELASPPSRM

[15] = molecular target: Ubiquitin carboxyl-terminal hydrolase 7 (Homo sapiens (Human)) (UniProt Q93009)
[16] = molecular target: Ubiquitin carboxyl-terminal hydrolase 8 (Homo sapiens (Human)) (UniProt P40818)
[17] = molecular target: serine protease NS3 (a.a. 3-181) from Hepatitis C virus genotype 1a (mutant D168V) (Hepatitis C virus genotype 1a)
[18] = molecular target: serine protease NS3 (a.a. 3-181) from Hepatitis C virus genotype 1b (mutant D168V) (Hepatitis C virus genotype 1b)
[19] = molecular target: serine protease NS3 (a.a. 3-181) from Hepatitis C virus genotype 1b (mutant R155Q) (Hepatitis C virus genotype 1b)
[20] = molecular target: Recombinant human FAP (R&D systems, #3715-SE) (human)
[21] = molecular target: Recombinant human DPP4 (R&D systems #9168-SE) (human) (UniProt P27487)
[22] = molecular target: recombinant human PREP (R&D systems, #4308-SE) (human) (UniProt P48147)
Sequence of recombinant human PREP (R&D systems, #4308-SE) (human) (P48147 whole entry): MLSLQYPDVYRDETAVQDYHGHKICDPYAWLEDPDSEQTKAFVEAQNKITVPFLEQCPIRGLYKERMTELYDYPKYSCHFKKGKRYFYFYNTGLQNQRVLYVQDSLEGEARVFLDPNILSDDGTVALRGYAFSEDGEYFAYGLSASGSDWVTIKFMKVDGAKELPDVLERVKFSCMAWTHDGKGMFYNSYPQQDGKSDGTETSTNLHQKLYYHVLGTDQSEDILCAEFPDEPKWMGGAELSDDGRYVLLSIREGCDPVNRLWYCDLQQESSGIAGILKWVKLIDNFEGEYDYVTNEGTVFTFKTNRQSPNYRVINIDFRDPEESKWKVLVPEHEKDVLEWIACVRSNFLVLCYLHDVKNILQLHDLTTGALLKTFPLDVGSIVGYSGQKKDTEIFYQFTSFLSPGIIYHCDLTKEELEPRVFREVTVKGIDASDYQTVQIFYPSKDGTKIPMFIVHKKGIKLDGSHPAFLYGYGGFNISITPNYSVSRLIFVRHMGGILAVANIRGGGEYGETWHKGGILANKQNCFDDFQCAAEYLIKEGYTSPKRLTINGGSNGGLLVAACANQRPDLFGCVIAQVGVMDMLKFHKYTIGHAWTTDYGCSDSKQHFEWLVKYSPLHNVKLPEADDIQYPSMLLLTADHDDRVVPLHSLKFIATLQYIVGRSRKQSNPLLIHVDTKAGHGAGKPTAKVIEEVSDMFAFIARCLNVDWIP

Sequence of Caspase-8 (Homo sapiens (Human)) (Q14790 217-479 limits assumed): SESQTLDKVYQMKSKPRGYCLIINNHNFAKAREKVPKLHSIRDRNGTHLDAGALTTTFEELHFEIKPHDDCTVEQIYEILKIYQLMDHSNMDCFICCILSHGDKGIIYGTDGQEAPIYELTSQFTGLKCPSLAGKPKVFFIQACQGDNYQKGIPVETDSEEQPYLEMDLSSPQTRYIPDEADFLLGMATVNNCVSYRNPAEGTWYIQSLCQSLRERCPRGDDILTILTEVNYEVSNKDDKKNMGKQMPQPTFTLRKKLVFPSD
Sequence of Matrix metalloprotease1 (Homo sapiens (Human)) (P03956 100-469): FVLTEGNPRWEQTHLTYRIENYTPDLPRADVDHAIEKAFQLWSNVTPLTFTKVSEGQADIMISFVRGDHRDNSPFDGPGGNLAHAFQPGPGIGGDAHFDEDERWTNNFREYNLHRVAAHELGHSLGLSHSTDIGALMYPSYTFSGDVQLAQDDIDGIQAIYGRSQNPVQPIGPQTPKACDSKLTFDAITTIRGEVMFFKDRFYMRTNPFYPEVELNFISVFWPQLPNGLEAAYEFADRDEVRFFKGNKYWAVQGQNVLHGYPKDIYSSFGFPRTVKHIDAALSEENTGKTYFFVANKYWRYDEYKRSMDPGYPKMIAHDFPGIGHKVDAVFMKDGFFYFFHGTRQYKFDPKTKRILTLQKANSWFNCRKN
Sequence of FAP (enzyme of the specificity protease screening) (Homo sapiens (Human)) (Q12884 26-760 limits assumed): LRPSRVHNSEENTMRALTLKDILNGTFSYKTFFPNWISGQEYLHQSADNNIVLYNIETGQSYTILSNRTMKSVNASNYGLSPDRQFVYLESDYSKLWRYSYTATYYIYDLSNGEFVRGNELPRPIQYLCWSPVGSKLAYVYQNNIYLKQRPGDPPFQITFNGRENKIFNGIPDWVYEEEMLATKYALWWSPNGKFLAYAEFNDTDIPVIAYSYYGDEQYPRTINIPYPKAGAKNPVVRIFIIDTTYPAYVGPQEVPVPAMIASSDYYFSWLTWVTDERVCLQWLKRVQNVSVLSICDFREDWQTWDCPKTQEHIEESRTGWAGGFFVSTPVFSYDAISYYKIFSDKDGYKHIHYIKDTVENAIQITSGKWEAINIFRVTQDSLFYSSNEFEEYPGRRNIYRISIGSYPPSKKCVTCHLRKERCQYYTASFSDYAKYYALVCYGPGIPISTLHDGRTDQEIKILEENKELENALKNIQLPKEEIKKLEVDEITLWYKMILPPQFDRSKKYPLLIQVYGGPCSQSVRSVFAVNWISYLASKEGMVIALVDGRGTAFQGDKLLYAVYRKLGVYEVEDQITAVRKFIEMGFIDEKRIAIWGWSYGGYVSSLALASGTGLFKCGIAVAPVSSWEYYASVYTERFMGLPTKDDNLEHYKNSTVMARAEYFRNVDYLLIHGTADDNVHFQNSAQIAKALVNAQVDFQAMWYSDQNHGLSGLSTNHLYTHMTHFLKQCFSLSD
Sequence of Recombinant human FAP (R&D systems, #3715-SE) (human) (chain, as listed by the source limits assumed): as the sequence (Q12884 26-760 limits assumed) above

Hex-[Cys(tMeBn(DOTA-AET))-Pro-Pro-Thr-Gln-Phe-Cys]-OH (3BP-3554) (peptide)
Percentage inhibition (%) (% inhibition at 10 µM) [1]: 0 | Percentage inhibition (%) (% inhibition at 10 µM) [2]: 1 | Percentage inhibition (%) (% inhibition at 10 µM) [3]: -3 | Percentage inhibition (%) (% inhibition at 10 µM) [4]: -25 | Percentage inhibition (%) (% inhibition at 10 µM) [5]: -1 | Percentage inhibition (%) (% inhibition at 10 µM) [6]: 11 | Percentage inhibition (%) (% inhibition at 10 µM) [7]: 0 | Percentage inhibition (%) (% inhibition at 1 µM) [8]: 97 | Percentage inhibition (%) (% inhibition at 10 µM) [9]: 2 | Percentage inhibition (%) (% inhibition at 10 µM) [10]: -7 | Percentage inhibition (%) (% inhibition at 10 µM) [11]: -1 | Percentage inhibition (%) (% inhibition at 10 µM) [12]: 4 | Percentage inhibition (%) (% inhibition at 10 µM) [13]: 2 | Percentage inhibition (%) (% inhibition at 10 µM) [14]: -1 | Percentage inhibition (%) (% inhibition at 10 µM) [15]: 1 | Percentage inhibition (%) (% inhibition at 10 µM) [16]: 1 | Percentage inhibition (%) (% inhibition at 10 µM) [17]: -372 | Percentage inhibition (%) (% inhibition at 10 µM) [18]: -17 | Percentage inhibition (%) (% inhibition at 10 µM) [19]: -5

Hex-[Cys(tMeBn(DOTA-PP))-Pro-Pro-Thr-Gln-Phe-Cys]-Asp-NH2 (3BP-3407) (peptide)
pIC50 Category (Activity) [20]: > 8 pIC50 | pIC50 (DPP4) [21]: < 6 pIC50 | pIC50 (PREP) [22]: < 6 pIC50 | Percentage inhibition (%) (% inhibition at 10 µM) [1]: -4 | Percentage inhibition (%) (% inhibition at 10 µM) [2]: 8 | Percentage inhibition (%) (% inhibition at 10 µM) [3]: 0 | Percentage inhibition (%) (% inhibition at 10 µM) [4]: -24 | Percentage inhibition (%) (% inhibition at 10 µM) [5]: -18 | Percentage inhibition (%) (% inhibition at 10 µM) [6]: 5 | Percentage inhibition (%) (% inhibition at 10 µM) [7]: 15 | Percentage inhibition (%) (% inhibition at 1 µM) [8]: 98 | Percentage inhibition (%) (% inhibition at 10 µM) [9]: 2 | Percentage inhibition (%) (% inhibition at 10 µM) [10]: 2 | Percentage inhibition (%) (% inhibition at 10 µM) [11]: 3 | Percentage inhibition (%) (% inhibition at 10 µM) [12]: 4 | Percentage inhibition (%) (% inhibition at 10 µM) [13]: 5 | Percentage inhibition (%) (% inhibition at 10 µM) [14]: 7 | Percentage inhibition (%) (% inhibition at 10 µM) [15]: 5 | Percentage inhibition (%) (% inhibition at 10 µM) [16]: 6 | Percentage inhibition (%) (% inhibition at 10 µM) [17]: -68 | Percentage inhibition (%) (% inhibition at 10 µM) [18]: -6 | Percentage inhibition (%) (% inhibition at 10 µM) [19]: 2

Source: patent US12427210B2, “Compounds comprising a fibroblast activation protein ligand and use thereof” (priority 2019, dated 2025)
